# Assay: yeast display, Sf9 membrane polyspecificity reagent, FACS + sequencing; frameworks hold sequencing errors
# Outline: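 Nanobodies from a synthetic yeast display library (Saccharomyces cerevisiae BJ5465), induced 36–48 hours with galactose, were stained 1 hour at 4 °C with 10% biotinylated, detergent-solubilized Sf9 membrane reagent, enriched on streptavidin microbeads, then FACS-sorted. Anti-HA (expression) and streptavidin (reagent binding) fluorescence set low and high (top ~1%) gates. Polyreactivity labels come from the gate of origin. Genes were colony-PCR amplified, MiSeq 2 × 250 sequenced and filtered by CDR length.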
row,Sequence,polyreactivity (PSR sort gate)
1,QVQLVESGGGLVQAGGSLRLSCAASGSIFVYNAMGWYSPAPGQERELVAAITYSGGRTYYADSVKGRFTISRDNAKNTVYVQMNSLKPEDTAVDFCAADLTSKSSPQGYRYDYWGQGTQVTVSS,low polyreactivity
2,QVQLVESGGGLVQAGGSLRLSCAASGSIFVYYAMGWYRQAPGKERELGAAISSTGGRTYYADSVKGRFTISRDNAKNTVYLQMNSLKPEDTAVYYCAKTPTVVEFDYWGQGTQVTVAS,low polyreactivity
3,QVQLVESGGGLVQAGGSLRLSCAASGSIFVYYAMGWYRQAPGKERELVAAINSSGGRTYYADSVKGRFTISRDNAKNTVYLQMNSLKPEETAVYYCAAVYRYWTSYNGRNYWGQGTQVTVSS,high polyreactivity
4,QVQLVESGGGLVQAGGSLRLSCAASGSIFVYYAMGWYRQAPGKERELVATISSDVSTYYSDSVKGRFTISRDNAKNTVYVQMNRLKPEDTAVDYCAATVSFDWAYSFSLDLEDDYWGQGTQVTVSS,low polyreactivity
5,QVQLVESGGGLVQAGGSLRLSCAASGSIFVYYAMGWYRQAPGNERELVAAISKTGGRTYYADSVKGRFTISRDNAKNTVYLQMNSLKPEDSAVYYCAARYTIRYKRYDYWGQGTQVTVSS,high polyreactivity
6,QVQLVESGGGLVQAGGSLRLSCAASGSIFWFNAMGWYRQAPGNERELVATIRYSGGSTYYADSVKGRFTISRDNAKNTVYLQMNSLKPEDTAVYYCAAVSRYSRSGYEYWGQGTQVTVSS,high polyreactivity
7,QVQLVESGGGLVQAGGSLRLSCAASGSIFWGIAMGWYRQAPGTERELVAAISWGGGRTYYADSVKGRFTLSRDNAKNTVYLQMNSLKPEDTAVYYCNTRYPYVVSTGYDYWGQGTQVTVSS,high polyreactivity
8,QVQLVESGGGLVQAGGSLRLSCAASGSIFWGNAMGCYRQAPGKERELVASISDSGGSTYADSVKGRFTISRDNAKNTVYLQMNSLKPEDTAVYYCAADDWYSAGIRNWYYGGYDYWGQGTQVTVSS,low polyreactivity
9,QVQLVESGGGLVQAGGSLRLSCAASGSIFWGYAMGWYRQAPGKERELVAAITRGDTTNYADSVKGRFTISRDNAKNTVYLQMNSLKPEDTAVYYCAATPDPPHTYEYWGQGTQVTVSS,low polyreactivity
10,QVQLVESGGGLVQAGGSLRLSCAASGSIFWGYAMGWYRQAPGKERELVATIPNRGGSTYYADSVKARFTISRDNAKNTVYLQMNSLKPEDTAVYYCAVERDYWTKASYYWGRGTQVTVSS,low polyreactivity
11,QVQLVESGGGLVQAGGSLRLSCAASGSIFWINAMGGYRQAPGKEREVVADIDVSGGSTYYADSVKGRFTISRDNAKNTVYLQMNSLKPEDTAVYYCAADAWVRTYHYGYWGQGTQVTVSS,low polyreactivity
12,QVQLVESGGGLVQAGGSLRLSCAASGSIFWKYAMGWYRQAPGKERELVAAISWSDGSTYYADSVKGRFTISRDNAKNTVYLQMNSLKPEVTAVYYCNTPPQWLGRYITITFDYWGQGTQVTVSS,low polyreactivity
13,QVQLVESGGGLVQAGGSLRLSCAASGSIFWLYAMGWYRQAPGKERELVAAINWSTGRTYYADSVKGRFTISRDNAKNTVYLQMNSLKPEDTAVYYCAADLNWWFDYSSPDEMYYWGQGTQVNVSS,high polyreactivity
14,QVQLVESGGGLVQAGGSLRLSCAASGSIFWLYAMGWYRQAPGKERELVASITGGGSTNYADSVKGRFTISRDNAKNTVYLQMNSLKPEDTAVYYCAKRYYRPGRKRTGLDYWGQGTQVTVSS,high polyreactivity
15,QVQLVESGGGLVQAGGSLRLSCAASGSIFWPNTMGWYRQAPGKERELVATISSGGDTSYADSVKGRFTISRDNAKNTVYLQMNSLKPEDTAVYYCAKRITVDDVHPRAQTYNYWGQGTQVTVSS,low polyreactivity
16,QVQLVESGGGLVQAGGSLRLSCAASGSIFWPYAMGWYRQAPGKEREFVDAITWSGGSTYYADSVKGRFTISRDNAKNTVYLQMNSLKPEDTAVYYCAAVPYTRWKGADGDYWGQGTQVTVSS,high polyreactivity
17,QVQLVESGGGLVQAGGSLRLSCAASGSIFWPYTMGWYRQAPGKEWELVAAITSTDSTDYADSVKGRFTISRDNAKNTVYLQMNSLKPEDTAVYYCNADYQSRTGSVIYTAHPYDYWGQGTQVTVSS,low polyreactivity
18,QVQLVESGGGLVQAGGSLRLSCAASGSIFWRNAIGWYRQAPRKERELVAAISRVGSTNYADSVKGRFTISRDNAKNTVYLQMTSLKPEDTAVYYCAKDSIWRVYEYDYWGQGTQVTVSS,low polyreactivity
19,QVQLVESGGGLVQAGGSLRLSCAASGSIFWRNAMGWYRQAQGKEREFVATITWSGDSTYYADSVKGRFTISRDNAKNTVYLQMNSLKPEDTAVYYCATDWRNWGYDSWGQGTQVTVSS,low polyreactivity
20,QVQLVESGGGLVQAGGSLRLSCAASGSIFWRYAMGWDRQAPGKERELVATITSRGGSTYYADSVKGRFTISRDNAKNTVYLQMNSLKPEDTAVYYCAATGLPGYYAYDYWGQGTQVTVSS,low polyreactivity
21,QVQLVESGGGLVQAGGSLRLSCAASGSIFWRYAMGWYRQAPGKERELVAAISSSGSTYYADSVKGRFTISRDNAKNTVYLQMNSLKPEDTAVYYCAKRASALLRHSYDYWGQGTQVSVSS,low polyreactivity
22,QVQLVESGGGLVQAGGSLRLSCAASGSIFWRYDMGWLDRRLGKKGSSLPLLLVLVTTRTTQTPVKGRFTISRDNAKNTVYLQMNSLKPEDTAVYYCAADLRASGLKYEYWGQGTQVTVSS,low polyreactivity

row,Sequence,polyreactivity (PSR sort gate)
1,QVQLVESGGGLVQAGGSLRLSCAASGSIFWRYTMGWYRQAPGKERELVAAISTRGGSTYYADSVKGRFTISRDNAKNTVYLQMNSLKPEDTAVYYCNAVEGSRLPYDYWGQGTQVTVSS,low polyreactivity
2,QVQLVESGGGLVQAGGSLRLSCAASGSIFWSNAMGWYRQEPVKEREMVARISTSGGRTYYADSVKGRFTISRDNAKNTVYLQMNSLKPEDTAVYYCADDPYRWYYSTFYYWGQGTQVTVSS,high polyreactivity
3,QVQLVESGGGLVQAGGSLRLSCAASGSIFWSYAMGWYRQAPGKEREFVAAISGGDGTTYYADSVKGRFTISRDNAKNTVYLQMNSLKPEDTAVYYCNAVGYWYGSLEYDYWGQGTQVTVSS,low polyreactivity
4,QVQLVESGGGLVQAGGSLRLSCAASGSIFWSYAMGWYRQAPGKERELVAAITYSGTSTYYADSVKGRFTISRDNAKNTVYLQMNSLKPEDTAVYYCNADAYVYFDDGDYWGQGTQVTVSS,low polyreactivity
5,QVQLVESGGGLVQAGGSLRLSCAASGSIFWTNAMGWYRQAPGKERELVAAIRVSTGSTYYADSVKGRFTISRDNAKNTVYLQMNSLKPEDTAVYYCAARTYGWGYDYWGQGTQVTVSS,low polyreactivity
6,QVQLVESGGGLVQAGGSLRLSCAASGSIFWWYGMGWDRQAPGKERELVADITSGGGTYYADSVKGRFTISRDNAKNTVYLQLNSLKPEDTAVYYCAADVRAYRFDYYFDYWGQGTQVTVSS,low polyreactivity
7,QVQLVESGGGLVQAGGSLRLSCAASGSIFWYNTMGWYRQAPGKERELVAAISYRGGRTYYADSVKGRFTISRDNAKNTVYLQMNSLKPEDTAVYYCNAPRYLGGGQDALGDYWGQGTQVTVSS,high polyreactivity
8,QVQLVESGGGLVQAGGSLRLSCAASGSIFWYNTMGWYRQAPGKERELVAAITFSGGSTYYADSVKERFTISRDNAKNTVYLQMNSLKPEDTAVYYCAAVFYSAVGYYYWGQGTQVTVSS,low polyreactivity
9,QVQLVESGGGLVQAGGSLRLSCAASGSIFYAYAMGWYRQAPGKERELVATISRGVNTNYADSVKGRFTISRDNAKNTVYLQMNSLKPEDTAVYYCNARLRYGHGYGYWGQGTQVTVSS,low polyreactivity
10,QVQLVESGGGLVQAGGSLRLSCAASGSIFYDNAMGWSRQAPGKERELVASIRWSGDSTYYADSVKGRFTISRDNAKNTVYLQMNSLKPEDTAVYYCAADPVEPYFTAIAYDYWGQGTQVTVSS,low polyreactivity
11,QVQLVESGGGLVQAGGSLRLSCAASGSIFYDYAMGCYRQAPGKERELVDRISSGGSTYYADSVKGRFTISRDNAKNTVYLQMNSLKPEDSAVYYCNAGVEFAASLYYSDNYDYWGQGTQVTVSS,low polyreactivity
12,QVQLVESGGGLVQAGGSLRLSCAASGSIFYDYAMGWYRQAPGKERELVAAITASGGSTYYADSVKGRFTISRDNAKNTVYLQMNSLKPEDTAVYYCAAESESYEQVGEMDSWGQGTQVTVSS,low polyreactivity
13,QVQLVESGGGLVQAGGSLRLSCAASGSIFYDYTMGWYRQAPGKERELVAAINSGGSTNYADSVKGRFTISRDNAKNTVYLQMNSLKPEDTAVYYCAAVRYNSRVSTTPSEMYYLGQGTQVTVSS,low polyreactivity
14,QVQLVESGGGLVQAGGSLRLSCAASGSIFYENAMGWYRQAPGKERELVAAIRDSGGSTYYADSVKGRFTISRDNAKNTVYLQMNSLKPEDTAVYYCNAVPVYYDYDYWGQGTQVTVSS,low polyreactivity
15,QVQLVESGGGLVQAGGSLRLSCAASGSIFYFNAMGWYRQAPGKERELVAAISSGGGTNYADSVKGRFTISRDNAKNTVYLQMNSLKPEDTAVYYCAAAVSLFYPTWYYFSYDYWGQGTQVTVSS,low polyreactivity
16,QVQLVESGGGLVQAGGSLRLSCAASGSIFYFNAMGWYRQAPGKERELVAAISTSGGSTYADSVKGRFTISRDNAKNTVYLQMNSLKPEDTAVYYCAADYLTSRSRTFDYWGQGTQVTVSS,low polyreactivity
17,QVQLVESGGGLVQAGGSLRLSCAASGSIFYFNAMGWYRQAPGKERELVATIRSGDGRTYYADSVKGRFTISRDNAKNTVYLQMNSLKPEDTAVYYCNASRVVYRQAYLYGYDYWGQGTQVTVSS,low polyreactivity
18,QVQLVESGGGLVQAGGSLRLSCAASGSIFYFYAMGGYRQAPGKERELVAAIRSSDGITYYADSVKGRFTISRDNAKNTVYLQMNSLKPEDTAVYYCAALVRDFYNWDTLYYWGQGTQVTVSS,low polyreactivity
19,QVQLVESGGGLVQAGGSLRLSCAASGSIFYFYAMGWYRQAPGKERELVAAISSRGTSTYYADSVKGRFTISRDNAKNTVYLQMNSLKPEDTAVYYCAAQIYVYYQRRPPYDYWGQGTQVTVSS,high polyreactivity
20,QVQLVESGGGLVQAGGSLRLSCAASGSIFYGNAMGWYRQAPGKERELVAAISGSGGRTYYADSVKGRFTISRDNAKNTVYLQMISLKTEDTAVYYCAASAPGGQDDYWGQGTQVTVSS,high polyreactivity
21,QVQLVESGGGLVQAGGSLRLSCAASGSIFYGNAMGWYRQAPGKERELVAAISQSGSRTYYADSVKGRFTISRDNAKNTVYLQMNSLKPEDTAVYYCAARARIYNYWGQGTQVTVSS,high polyreactivity

# Source: the nanobody polyreactivity screen of Harvey et al. (2022)
